Results reported in patent US20180022780A1 (Bayer, published 2018).
Numbering of substitutions follows the chain as printed. Bridge positions count the residues as written; N and C are the ends. Square brackets hold non-standard residues; d marks the D form. Ends that are not written are not given here. * marks the point of attachment. Palmitoyl = CCCCCCCCCCCCCCCC(=O)*; NMeI = CC[C@H](C)[C@H](NC)C(=O)O; Orn = NCCC[C@H](N)C(=O)O; Dab = NCC[C@H](N)C(=O)O; Dap = NC[C@H](N)C(=O)O

B1: [G^14, (Dab^16, E^21)lac]ADM(14-52) (peptide)
peptide: GG[Dab]RFGTETVQKLAHQIYQFTDKDKDNVAPRSKISPQGY-NH2
modifications: lactam 3-8; N-terminus assumed
SMILES: CC[C@H](C)[C@H](NC(=O)[C@H](CCC(N)=O)NC(=O)[C@H](Cc1c[nH]cn1)NC(=O)[C@H](C)NC(=O)[C@H](CC(C)C)NC(=O)[C@H](CCCCN)NC(=O)[C@H](CCC(N)=O)NC(=O)[C@@H](NC(=O)[C@@H](NC(=O)[C@@H]1CCC(=O)NCC[C@H](NC(=O)CNC(=O)CN)C(=O)N[C@@H](CCCNC(=N)N)C(=O)N[C@@H](Cc2ccccc2)C(=O)NCC(=O)N[C@@H]([C@@H](C)O)C(=O)N1)[C@@H](C)O)C(C)C)C(=O)N[C@@H](Cc1ccc(O)cc1)C(=O)N[C@@H](CCC(N)=O)C(=O)N[C@@H](Cc1ccccc1)C(=O)N[C@H](C(=O)N[C@@H](CC(=O)O)C(=O)N[C@@H](CCCCN)C(=O)N[C@@H](CC(=O)O)C(=O)N[C@@H](CCCCN)C(=O)N[C@@H](CC(=O)O)C(=O)N[C@@H](CC(N)=O)C(=O)N[C@H](C(=O)N[C@@H](C)C(=O)N1CCC[C@H]1C(=O)N[C@@H](CCCNC(=N)N)C(=O)N[C@@H](CO)C(=O)N[C@@H](CCCCN)C(=O)N[C@H](C(=O)N[C@@H](CO)C(=O)N1CCC[C@H]1C(=O)N[C@@H](CCC(N)=O)C(=O)NCC(=O)N[C@@H](Cc1ccc(O)cc1)C(N)=O)[C@@H](C)CC)C(C)C)[C@@H](C)O
B2: [K^14(PAM), (E^16, K^21)lac]ADM(14-52) (peptide)
peptide: K(Palmitoyl)GERFGTKTVQKLAHQIYQFTDKDKDNVAPRSKISPQGY-NH2
modifications: lactam 3-8; N-terminus assumed
SMILES: CCCCCCCCCCCCCCCC(=O)NCCCC[C@H](N)C(=O)NCC(=O)N[C@H]1CCC(=O)NCCCC[C@@H](C(=O)N[C@H](C(=O)N[C@H](C(=O)N[C@@H](CCC(N)=O)C(=O)N[C@@H](CCCCN)C(=O)N[C@@H](CC(C)C)C(=O)N[C@@H](C)C(=O)N[C@@H](Cc2c[nH]cn2)C(=O)N[C@@H](CCC(N)=O)C(=O)N[C@H](C(=O)N[C@@H](Cc2ccc(O)cc2)C(=O)N[C@@H](CCC(N)=O)C(=O)N[C@@H](Cc2ccccc2)C(=O)N[C@H](C(=O)N[C@@H](CC(=O)O)C(=O)N[C@@H](CCCCN)C(=O)N[C@@H](CC(=O)O)C(=O)N[C@@H](CCCCN)C(=O)N[C@@H](CC(=O)O)C(=O)N[C@@H](CC(N)=O)C(=O)N[C@H](C(=O)N[C@@H](C)C(=O)N2CCC[C@H]2C(=O)N[C@@H](CCCNC(=N)N)C(=O)N[C@@H](CO)C(=O)N[C@@H](CCCCN)C(=O)N[C@H](C(=O)N[C@@H](CO)C(=O)N2CCC[C@H]2C(=O)N[C@@H](CCC(N)=O)C(=O)NCC(=O)N[C@@H](Cc2ccc(O)cc2)C(N)=O)[C@@H](C)CC)C(C)C)[C@@H](C)O)[C@@H](C)CC)C(C)C)[C@@H](C)O)NC(=O)[C@H]([C@@H](C)O)NC(=O)CNC(=O)[C@H](Cc2ccccc2)NC(=O)[C@H](CCCNC(=N)N)NC1=O
B3: [G^14, (K^16, E^21)lac]ADM(14-52) (peptide)
peptide: GGKRFGTETVQKLAHQIYQFTDKDKDNVAPRSKISPQGY-NH2
modifications: lactam 3-8; N-terminus assumed
SMILES: CC[C@H](C)[C@H](NC(=O)[C@H](CCC(N)=O)NC(=O)[C@H](Cc1c[nH]cn1)NC(=O)[C@H](C)NC(=O)[C@H](CC(C)C)NC(=O)[C@H](CCCCN)NC(=O)[C@H](CCC(N)=O)NC(=O)[C@@H](NC(=O)[C@@H](NC(=O)[C@@H]1CCC(=O)NCCCC[C@H](NC(=O)CNC(=O)CN)C(=O)N[C@@H](CCCNC(=N)N)C(=O)N[C@@H](Cc2ccccc2)C(=O)NCC(=O)N[C@@H]([C@@H](C)O)C(=O)N1)[C@@H](C)O)C(C)C)C(=O)N[C@@H](Cc1ccc(O)cc1)C(=O)N[C@@H](CCC(N)=O)C(=O)N[C@@H](Cc1ccccc1)C(=O)N[C@H](C(=O)N[C@@H](CC(=O)O)C(=O)N[C@@H](CCCCN)C(=O)N[C@@H](CC(=O)O)C(=O)N[C@@H](CCCCN)C(=O)N[C@@H](CC(=O)O)C(=O)N[C@@H](CC(N)=O)C(=O)N[C@H](C(=O)N[C@@H](C)C(=O)N1CCC[C@H]1C(=O)N[C@@H](CCCNC(=N)N)C(=O)N[C@@H](CO)C(=O)N[C@@H](CCCCN)C(=O)N[C@H](C(=O)N[C@@H](CO)C(=O)N1CCC[C@H]1C(=O)N[C@@H](CCC(N)=O)C(=O)NCC(=O)N[C@@H](Cc1ccc(O)cc1)C(N)=O)[C@@H](C)CC)C(C)C)[C@@H](C)O
B4: [K^14(PAM), (K^16,E^21)lac]ADM(14-52) (peptide)
peptide: K(Palmitoyl)GKRFGTETVQKLAHQIYQFTDKDKDNVAPRSKISPQGY-NH2
modifications: lactam 3-8; N-terminus assumed
SMILES: CCCCCCCCCCCCCCCC(=O)NCCCC[C@H](N)C(=O)NCC(=O)N[C@H]1CCCCNC(=O)CC[C@@H](C(=O)N[C@H](C(=O)N[C@H](C(=O)N[C@@H](CCC(N)=O)C(=O)N[C@@H](CCCCN)C(=O)N[C@@H](CC(C)C)C(=O)N[C@@H](C)C(=O)N[C@@H](Cc2c[nH]cn2)C(=O)N[C@@H](CCC(N)=O)C(=O)N[C@H](C(=O)N[C@@H](Cc2ccc(O)cc2)C(=O)N[C@@H](CCC(N)=O)C(=O)N[C@@H](Cc2ccccc2)C(=O)N[C@H](C(=O)N[C@@H](CC(=O)O)C(=O)N[C@@H](CCCCN)C(=O)N[C@@H](CC(=O)O)C(=O)N[C@@H](CCCCN)C(=O)N[C@@H](CC(=O)O)C(=O)N[C@@H](CC(N)=O)C(=O)N[C@H](C(=O)N[C@@H](C)C(=O)N2CCC[C@H]2C(=O)N[C@@H](CCCNC(=N)N)C(=O)N[C@@H](CO)C(=O)N[C@@H](CCCCN)C(=O)N[C@H](C(=O)N[C@@H](CO)C(=O)N2CCC[C@H]2C(=O)N[C@@H](CCC(N)=O)C(=O)NCC(=O)N[C@@H](Cc2ccc(O)cc2)C(N)=O)[C@@H](C)CC)C(C)C)[C@@H](C)O)[C@@H](C)CC)C(C)C)[C@@H](C)O)NC(=O)[C@H]([C@@H](C)O)NC(=O)CNC(=O)[C@H](Cc2ccccc2)NC(=O)[C@H](CCCNC(=N)N)NC1=O
B5: [G^14, (E^16, K^21)lac]ADM(14-52) (peptide)
peptide: GGERFGTKTVQKLAHQIYQFTDKDKDNVAPRSKISPQGY-NH2
modifications: lactam 3-8; N-terminus assumed
SMILES: CC[C@H](C)[C@H](NC(=O)[C@H](CCC(N)=O)NC(=O)[C@H](Cc1c[nH]cn1)NC(=O)[C@H](C)NC(=O)[C@H](CC(C)C)NC(=O)[C@H](CCCCN)NC(=O)[C@H](CCC(N)=O)NC(=O)[C@@H](NC(=O)[C@@H](NC(=O)[C@@H]1CCCCNC(=O)CC[C@H](NC(=O)CNC(=O)CN)C(=O)N[C@@H](CCCNC(=N)N)C(=O)N[C@@H](Cc2ccccc2)C(=O)NCC(=O)N[C@@H]([C@@H](C)O)C(=O)N1)[C@@H](C)O)C(C)C)C(=O)N[C@@H](Cc1ccc(O)cc1)C(=O)N[C@@H](CCC(N)=O)C(=O)N[C@@H](Cc1ccccc1)C(=O)N[C@H](C(=O)N[C@@H](CC(=O)O)C(=O)N[C@@H](CCCCN)C(=O)N[C@@H](CC(=O)O)C(=O)N[C@@H](CCCCN)C(=O)N[C@@H](CC(=O)O)C(=O)N[C@@H](CC(N)=O)C(=O)N[C@H](C(=O)N[C@@H](C)C(=O)N1CCC[C@H]1C(=O)N[C@@H](CCCNC(=N)N)C(=O)N[C@@H](CO)C(=O)N[C@@H](CCCCN)C(=O)N[C@H](C(=O)N[C@@H](CO)C(=O)N1CCC[C@H]1C(=O)N[C@@H](CCC(N)=O)C(=O)NCC(=O)N[C@@H](Cc1ccc(O)cc1)C(N)=O)[C@@H](C)CC)C(C)C)[C@@H](C)O
B6: [K^14(PAM), (Dpr^16, E^21)lac]ADM(14-52) (peptide)
peptide: K(Palmitoyl)G[Dap]RFGTETVQKLAHQIYQFTDKDKDNVAPRSKISPQGY-NH2
modifications: lactam 3-8; also: acetate salt
B7: [G^14, (E^16, Orn^21)lac]ADM(14-52) (peptide)
peptide: GGERFGT[Orn]TVQKLAHQIYQFTDKDKDNVAPRSKISPQGY-NH2
modifications: lactam 3-8
B8: [G^14, (E^16, Dab^21)lac]ADM(14-52) (peptide)
peptide: GGERFGT[Dab]TVQKLAHQIYQFTDKDKDNVAPRSKISPQGY-NH2
modifications: lactam 3-8
B9: [K^14(PAM), (E^16,K^21)lac, N-Me-I^47]ADM(14-52) (peptide)
peptide: K(Palmitoyl)GERFGTKTVQKLAHQIYQFTDKDKDNVAPRSK[NMeI]SPQGY-NH2
modifications: lactam 3-8
B10: [G^14, (C^16→U^21)]ADM(14-52) (peptide)
peptide: GGCRFGTXTVQKLAHQIYQFTDKDKDNVAPRSKISPQGY
modifications: positions 16 and 21 (residues 3 and 8 of the letters) together are cystathionine (C^16→U^21, thioether disulfide bond mimetic); X stands for the printed U at 21; C-terminal amide
B11: PAM[K^14, (C^16→U^21)]ADM(14-52) (peptide)
peptide: B10 peptide with G1K
modifications: palmitic acid (PAM) on the N-terminus (alpha-amine of K14); positions 16 and 21 (residues 3 and 8 of the letters) together are cystathionine (C^16→U^21, thioether); X stands for the printed U at 21; C-terminal amide
B12: [G^14, (U^16→U^21)]ADM(14-52) (peptide)
peptide: B10 peptide with C3X
modifications: positions 16 and 21 (residues 3 and 8 of the letters) together are 2,7-diaminosuberic acid (U^16→U^21, biscarba disulfide bond mimetic); X stands for the printed U; C-terminal amide
B13: [G^14, (U^16→C^21)]ADM(14-52) (peptide)
peptide: B10 peptide with C3X, X8C
modifications: positions 16 and 21 (residues 3 and 8 of the letters) together are cystathionine (U^16→C^21, thioether disulfide bond mimetic); X stands for the printed U at 16; C-terminal amide
B14: [K^14(PAM), (C^16→U^21)]ADM(14-52) (peptide)
peptide: B10 peptide with G1K
modifications: palmitic acid (PAM) on the side chain of K14 (residue 1 of the letters); positions 16 and 21 (residues 3 and 8) together are cystathionine (C^16→U^21, thioether); X stands for the printed U at 21; C-terminal amide

The binders below were run against human adrenomedullin-receptor (human, UniProt Q16602 23-461) (assay: cell-based or functional assay).
Chain of human adrenomedullin-receptor (Q16602 23-461): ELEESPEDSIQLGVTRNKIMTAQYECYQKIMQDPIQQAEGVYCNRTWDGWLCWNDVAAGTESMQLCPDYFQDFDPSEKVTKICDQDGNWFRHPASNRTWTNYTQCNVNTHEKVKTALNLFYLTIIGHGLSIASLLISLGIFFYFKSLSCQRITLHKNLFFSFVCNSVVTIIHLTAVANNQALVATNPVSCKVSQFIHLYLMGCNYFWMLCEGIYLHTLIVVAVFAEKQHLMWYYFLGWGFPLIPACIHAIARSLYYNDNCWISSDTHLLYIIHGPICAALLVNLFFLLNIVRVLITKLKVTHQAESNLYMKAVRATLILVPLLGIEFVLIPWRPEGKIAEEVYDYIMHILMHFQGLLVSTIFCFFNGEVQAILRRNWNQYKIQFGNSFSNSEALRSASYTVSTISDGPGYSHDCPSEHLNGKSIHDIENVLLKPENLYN

First: B1
Second: B2
The “EC50 [nM], aequorin luminescence of CHO adrenomedullin-receptor reporter cells” value (from here on “EC50 [nM], aequorin luminescence”) of the first is 42-fold higher: 34 nM for the first, 0.81 nM for the second.

B3 and B4 cannot be ordered by “EC50 [nM], aequorin luminescence” value: over 1000 nM for the first, over 1000 nM for the second.

B5 and B6 are within 1.5-fold of each other in “EC50 [nM], aequorin luminescence” value: 20.5 nM for the first, 22 nM for the second.

Compared with B7, B8 is lower in “EC50 [nM], aequorin luminescence” value: over 1000 nM for the first, 19.6 nM for the second.

Going from B9 to B10, the “EC50 [nM], aequorin luminescence” value falls from 32 nM to 0.07 nM (460-fold).

Compared with B11, B12 is higher in “EC50 [nM], aequorin luminescence” value: 11 nM for the first, over 1000 nM for the second.

First: B13
Second: B14
The “EC50 [nM], aequorin luminescence” value of the first is 16-fold lower: 1.54 nM for the first, 24 nM for the second.

The binders below were run against CLR fused to EYFP with RAMP2 fused to ECFP (assay: cell-based or functional assay).
Chain of CLR fused to EYFP with RAMP2 fused to ECFP (Q16602 whole entry, chain 1 of 2, the tested form may be a part): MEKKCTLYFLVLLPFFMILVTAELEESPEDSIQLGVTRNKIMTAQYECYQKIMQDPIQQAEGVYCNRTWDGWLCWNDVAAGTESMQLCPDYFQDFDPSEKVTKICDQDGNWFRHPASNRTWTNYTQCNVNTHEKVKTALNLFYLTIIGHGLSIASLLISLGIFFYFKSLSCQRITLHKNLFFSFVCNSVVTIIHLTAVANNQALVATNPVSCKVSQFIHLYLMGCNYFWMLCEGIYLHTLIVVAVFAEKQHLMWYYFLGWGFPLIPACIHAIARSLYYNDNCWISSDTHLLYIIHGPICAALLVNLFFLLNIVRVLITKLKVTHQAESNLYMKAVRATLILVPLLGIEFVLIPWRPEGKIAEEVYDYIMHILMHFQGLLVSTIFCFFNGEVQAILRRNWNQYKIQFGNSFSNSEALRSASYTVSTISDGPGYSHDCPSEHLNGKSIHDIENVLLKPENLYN
Chain of CLR fused to EYFP with RAMP2 fused to ECFP (O60895 whole entry, chain 2 of 2, further chain, the tested form may be a part): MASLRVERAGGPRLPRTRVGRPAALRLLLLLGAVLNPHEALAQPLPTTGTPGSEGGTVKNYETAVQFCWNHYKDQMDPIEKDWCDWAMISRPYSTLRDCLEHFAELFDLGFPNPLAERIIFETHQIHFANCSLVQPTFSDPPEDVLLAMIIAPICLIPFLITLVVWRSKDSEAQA

First: B1
Second: B2
The “EC50 [nM], cAMP assay (CRE-luciferase luminescence, HEK293 cells)” value (“EC50 [nM], cAMP assay” for short) of the first is 2.9-fold higher: 84 nM for the first, 29 nM for the second.

Going from B3 to B4, the “EC50 [nM], cAMP assay” value falls from over 1000 nM to 156 nM.

Going from B5 to B6, the “EC50 [nM], cAMP assay” value falls from 31 nM to 2 nM (16-fold).

Going from B7 to B8, the “EC50 [nM], cAMP assay” value rises from 21 nM to 41 nM (2-fold).

Compared with B9, B10 is 45-fold lower in “EC50 [nM], cAMP assay” value: 150 nM for the first, 3.3 nM for the second.

First: B12
Second: B13
The “EC50 [nM], cAMP assay” value of the first is higher: over 1000 nM for the first, 6.8 nM for the second.
